22 sequences from the supplement of paper PMC12764529 can be followed below.

± gives the half width of the 95% confidence interval.

Data set [1] in a line: folding stability dG unfold (combined trypsin and chymotrypsin); higher = more stable. Summed up:
(§1)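 Mini-proteins designed to be under 80 residues and free of cysteine were carried in a PA-tagged cDNA display construct and digested with trypsin and with chymotrypsin. Each protease was applied at 11 threefold-diluted concentrations, alongside a no-protease condition, before sequencing. K50 came from Bayesian fitting of the sequencing counts, and unfolding free energy was obtained by comparing it with a sequence-predicted unfolded-state K50 and a shared folded-state K50, for each protease separately or for both together. Designs were retained only if their AlphaFold2 dimer inter-PAE exceeded 15.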

Data set [2] is described as follows: folding stability dG unfold from trypsin proteolysis; higher = more stable. The method, then: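 Folding stability of de novo designed mini-proteins (<80 aa, no Cys; designed by TrROS, TrMRF, ProteinMPNN and the joint model) was measured by cDNA display proteolysis with trypsin and chymotrypsin. Each protease was used at 11 concentrations in a threefold dilution series plus a no-protease condition. K50 was inferred by Bayesian fitting of sequencing counts, and dG unfold was derived against a sequence-predicted unfolded-state K50 (Tsuboyama et al. method). Sequences shown include variable-length N-terminal GS-type padding (SAGGSAGG...) inside a display construct carrying a PA tag. Rows were kept only if the AF2 dimer inter-PAE was >15, to exclude likely homo-oligomers.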

Data set [3] in a line: folding stability dG unfold from chymotrypsin proteolysis; higher = more stable. Summed up:
as §1

Turning to “SAGGPMKVQVAVWRRDPDNGEPKEVEIPMTWDNIRELLDDIPPDGRYMVKIHSPGQPQTIPLEDLKELSAGG [r13_254_TrROS]”, the “folding stability dG unfold” value is < -1 kcal/mol in data set [1] and 0.153 ± 0.42 kcal/mol in data set [2].
In the same order, the values of “SAGGPNIEIEQERHPDDGMWTINVKWDNPAEIVEEIAKEIREQNRDIPIMITGPDGNPIMIPLDDIRSAGGS [r8_236_TrROS]” are -0.817 ± 0.39 kcal/mol and 0.177 ± 0.049 kcal/mol.
In the same order, the values of “SAGGPVIKIPIEIMMPNNDLNKFANEIAKELQDDGYKVKINPIEFEPQRDPDGKPDYVHFRATVEVQPSAGG [r13_707_TrROS]” are < -1 kcal/mol and -0.228 ± 0.18 kcal/mol.
In the same order, the values of “SAGGSAEKLEEAIEEAKKVPEGAEVPILITVEKDGKPVVFEVKITRLPKEKKIKIDPLKAYLPEEFSAGGSA [r15_724_TrMRF]” are < -1 kcal/mol and -0.63 ± 0.39 kcal/mol.
For “SAGGSAGGDGHPDILNAVFTRTETFYREGDDEPGGEGTREILVVVTGDNPENPELALKEAEEAASAGGSAGG [r6_928_TrMRF]”, the “folding stability dG unfold” value turned out to be 0.0849 ± 0.18 kcal/mol in data set [1] and 0.601 ± 0.055 kcal/mol in data set [2].
“SAGGSAGGDPSRLPVITPETFNVPVPAPGGVNETVTVTVIKLPGGETIVTTTYPDGKTTTELIPSAGGSAGG [r6_111_JUSTAS]”: the figures for the “folding stability dG unfold” value in data set [1] and in data set [2] were 0.182 ± 0.15 kcal/mol and 0.927 ± 0.058 kcal/mol, respectively.
With “SAGGSAGGGMVTVEIPLEVTLTTSLTPEPGTAQTVTLPVVVTIEFPPGNPEKLKKEVEKIKKKSSAGGSAGG [r6_280_JUSTAS]”, the “folding stability dG unfold” value is < -1 kcal/mol in data set [1] and -0.456 ± 0.2 kcal/mol in data set [2].
In the same order, the values of “SAGGSAGGIRIHRDNDKYVIHVPMDPNQPPENIKDILRDLPGLEDPEEIEYVPNPNGQAMIKIPSAGGSAGG [r6_516_TrROS]” are < -1 kcal/mol and -0.0828 ± 0.18 kcal/mol.
With “SAGGSAGGKIEIFDQDQHDEMNQENGMPPKNYWMIRINGKPTAILPPDKPLTPNTIKNLIKEGLSAGGSAGG [r6_243_TrROS]”, the entries for the “folding stability dG unfold” value in data set [1] and in data set [2] were -0.799 ± 0.8 kcal/mol and 0.447 ± 0.15 kcal/mol, respectively.
Take “SAGGSAGGKKVFLPYSVISTVVPKHFPGDEKQALIDAEFLAKKAEEAGFKDVDFVISPVPPGAPSAGGSAGG [r6_545_TrMRF]”: the entries for the “folding stability dG unfold” value in data set [1] and in data set [2] were -0.938 ± 0.27 kcal/mol and -0.467 ± 0.23 kcal/mol, respectively.
“SAGGSAGGMITIPINTPGLSPAEAAAIKAQLEADGYPAAEVTITASPVPPVPPLGPENIYSNRGSAGGSAGG [r6_246_JUSTAS]”: the “folding stability dG unfold” value in data set [1] is < -1 kcal/mol; in data set [2] it was -0.0678 ± 0.047 kcal/mol.
As to “SAGGSAGGMKAKVLVLDPETGKEYDSLEELKAEVEGPVLIRNSTGELILLHRDDLKYFPLPLSLSAGGSAGG [r6_684_TrMRF]”, the “folding stability dG unfold” value was found to be 0.0344 ± 0.2 kcal/mol in data set [1] and 0.305 ± 0.12 kcal/mol in data set [2].
As for “SAGGSAGGSAGGKKKKKKVSINIRGGMSVEEVKGKAQELQSQGDPDVKEVKIHISPNMWSAGGSAGGSAGGS [r10_233_TrROS]”, in data set [2], the “folding stability dG unfold” value was 0.33 ± 0.11 kcal/mol.
For the sequence “SAGGSAGGSAGGSMVAKELAEKIGAKVEGVEVKPIFDPEGKPVSEELKAKIEVLPPDYPLSAGGSAGGSAGG [r7_650_JUSTAS]”, the “folding stability dG unfold” value in data set [2] is -0.537 ± 0.19 kcal/mol.
As to “SAGGSAGGSAGGTAEELKEKLPDVEFVPLEELENSVLILAKPPGGPVKLILVDGDKVVVASAGGSAGGSAGG [r7_25_TrMRF]”, the “folding stability dG unfold” value in data set [2] was 0.322 ± 0.097 kcal/mol.
“SNLKIKWPNGHEIPIQKNNENVRIKFPGNGQEHPIPKEALEDNTPEEILDHLRDHFRQHGMPPMPVEIEKSA [r9_1211_TrROS]”: the results for the “folding stability dG unfold” value in data set [1] and in data set [3] were 0.192 ± 0.38 kcal/mol and 0.602 ± 0.083 kcal/mol, respectively.
For “SNVFPMEMTITVPVRDPKNGKKKTVDIPVPMYYRMEPEPYPDGKREMEPIPMEQFLEEIRRQAKELAKKGSA [r9_698_TrROS]”, the “folding stability dG unfold” value in data set [2] amounted to 0.764 ± 0.21 kcal/mol.
With “SPEFKIAEVRVEAFPDGTVKAEVRFEGGTETAVFDAPVDPETGVVPVRARIYNPETGEVSEFTATGRIGASA [r9_825_TrMRF]”, the “folding stability dG unfold” value is -0.325 ± 0.17 kcal/mol in data set [1] and 0.0658 ± 0.16 kcal/mol in data set [3].
“SPKWKPIAEIPFKNGDPDEFIDKLKDAFPPDPPVQITFNGPDGPPMRIWIDPDEGRIDDIYPGGQIRIIPSA [r9_853_TrROS]”: the “folding stability dG unfold” value in data set [1] is < -1 kcal/mol; in data set [3], -0.986 ± 0.39 kcal/mol.
Consider “SSSMTIAKTEVETYPDGVIRTKETFPGSDTYREFDIPVDPSTGKMPVKSTLYDPKTGKSIETTSEIELLESA [r9_825_JUSTAS]”, for which the “folding stability dG unfold” value in data set [1] is -0.884 ± 0.64 kcal/mol; in data set [3], -0.537 ± 0.33 kcal/mol.
For the sequence “SVITANDIKEMRKLGIEPIEHDPDNRYRFKFPRMNQPIEVEVKPVPPPPPIEIPDNMDSPEEADKWQDTFSA [r9_649_TrROS]”, the entries for the “folding stability dG unfold” value in data set [1] and in data set [3] were 0.259 ± 0.23 kcal/mol and 0.565 ± 0.16 kcal/mol, respectively.
“SVPVTDETLYPDPSNALPISLVSQLGPDGSSVTTSITLPGRSMTQSVDPSTGRVTGNYPGTGLSSTVTSVPS [r1_125_JUSTAS]”: the entries for the “folding stability dG unfold” value in data set [1] and in data set [3] were 0.0698 ± 0.11 kcal/mol and 0.348 ± 0.051 kcal/mol, respectively.
